± gives the uncertainty stated by the source.

A short description of the data set: amyloid nucleation score (Sup35N fusion, yeast selection) (log enrichment); library NNK1; higher = more nucleation; inactive = no reads after selection. The gist of the method: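 Yeast lacking psi expressed peptides of 20 random codons fused to Sup35N, received 100 μM copper sulfate for 24 hours, and were then grown for 7 days at 30°C on medium lacking adenine and uracil. Illumina sequencing of input and output plasmid inserts provided the reads. Nucleation scores are DiMSum log enrichments of output over input, centred on the mode of non-aggregating sequences. Any sequence with under 100 input reads was excluded.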

For the substance LTGGLMV, the amyloid nucleation score is -0.06 ± 0.34.
Substance LYVYTYYVMVLVGQKR yielded an amyloid nucleation score of -0.698 ± 0.93.
Substance DSNPNFCRLIKYVRNDCRTP yielded an amyloid nucleation score of 0.012 ± 0.26.
SVIFWMGRRMLLLACVPESA registered an amyloid nucleation score of -0.128 ± 0.81.
The substance DTSNHEGE came in with an amyloid nucleation score of -0.554 ± 1.7.
NDTLGSCLDNSLQSGSWWLR returned an amyloid nucleation score of 0.276 ± 0.39.
For the substance MMGASGFF, the amyloid nucleation score was -0.14 ± 0.32.
In the case of VWIDLSMCIYMLEPLNSLFR, the amyloid nucleation score was 1.95 ± 0.19.
CKYVRTQVWSHRLPADNCLT showed an amyloid nucleation score of -0.997 ± 0.98.
Under GRTHEEYF stands 0.048 ± 1.2; under YPSVADRHAILHR, 0.219 ± 0.74; under QNGRASVYFTGLAILYILID, 1.02 ± 0.25.
Take NSPRPSLLCCPCGKAYLHFR: the amyloid nucleation score was -0.282 ± 1.2.
MSGAESYLHLDLCRVTGIAS gave an amyloid nucleation score of -0.24 ± 0.35.
IFTRLSLSFHNLGLGWKTRV registered an amyloid nucleation score of -0.248 ± 0.38.
Take IALNRMFSISLVFYDKGFWY: the amyloid nucleation score entry was “inactive”.
In turn, DRLWIWQGNIVASIYKSCLL displayed an amyloid nucleation score of 5.41 ± 0.068.
On to VNCFSTLSMLWMSVQTEPRV, for which the amyloid nucleation score is 1.04 ± 0.28.
Consider TEAFRSRAFFGWWRSMCRRW, for which the amyloid nucleation score was found to be 0.112 ± 0.87.
As for MLMLSGVF, the figure is -0.782 ± 0.53; as for HSATGQIGRALLTSSCVCL, “inactive”; as for LYKEMTWRNWALSLKMSLRR, 0.146 ± 0.5.
MVVWWRHKVLKGHWL yielded an amyloid nucleation score of -0.189 ± 0.61.
YSIFILRSAWMMRRIEMSTA yielded an amyloid nucleation score of -0.252 ± 0.45.
In turn, VYRLEVIARK had an amyloid nucleation score of 1.69 ± 0.33.
For TAMRSHLSVPSNVTLPCIKH, the amyloid nucleation score was determined as 0.082 ± 0.46.
Under SKCNFVHSRLGIALQYETRL stands 3.56 ± 0.1.
For the substance SEWIKLRVRLDLSLVAFKII, the amyloid nucleation score is 0.686 ± 0.39.
VIHLSVSWLGMLSGWANLFV: the amyloid nucleation score was -0.529 ± 0.94.
Regarding LSAVPSNGHNNGGYVKSDVS, the amyloid nucleation score is -0.766 ± 1.4.
Under SVHKSMKSDINMACHAKR stands 1.04 ± 0.6; under YECGFLLSLVRATKLLNSAC, 0.146 ± 0.28; under YNIALCINSQVRESRRPVGV, 5.24 ± 0.072.
With FSKFSAVVDDPVCWKRLIFL, the amyloid nucleation score was -0.57 ± 0.53.
LLQAQHSF yielded an amyloid nucleation score of 0.208 ± 0.21.
Take KVSENLPRMPANLLTI: the amyloid nucleation score came out at 0.09 ± 0.44.
Under IVLDT stands 0.227 ± 0.29.
KMMPWVLLGRKLRLWRLCTK had an amyloid nucleation score of -0.463 ± 0.56.
RITHWSGKLAFQTIVTISYL came in with an amyloid nucleation score of 1.53 ± 0.41.
For YLDDIH, the amyloid nucleation score is -0.105 ± 0.44.
Consider GCGGTGAFTVQGKRQFIAGR, for which the amyloid nucleation score was -0.031 ± 0.27.
In the case of SYPTALLKSVLFPLVVI, the amyloid nucleation score was -0.463 ± 0.26.
Regarding LFGDLTNFQTFYT, the amyloid nucleation score entry is “inactive”.
Under AYKGMSLPDRIFKWLVWWHN stands 0.008 ± 0.53.
Under LLSIKSKSVFLASYCNILST stands 2.71 ± 0.17.
Regarding FLSVLNFVRIIEKEVGRNRN, the amyloid nucleation score stood at 1.79 ± 0.15.
In turn, YAKHCAEGYGFLGWSLWAVR displayed an amyloid nucleation score of 0.106 ± 0.34.
Take RLNRVSVLLFPTFDLPPFLE: the amyloid nucleation score was 2.68 ± 0.098.
In turn, LMHASHFFVGKMFLL gave an amyloid nucleation score of 0.266 ± 0.28.
As for IICICLVIISFRFCFSIKFM, the figure is -2.57 ± 2.7; as for FCLVMEFM, 0.606 ± 0.4; as for ATTALAMGGSNDTMGYGVRC, 0.006 ± 0.4.
In turn, RWSYA yielded an amyloid nucleation score of 0.981 ± 0.58.
PRTYMIRNWKSTNNSLASPK came in with an amyloid nucleation score of -1.09 ± 1.5.
Take WWRIIGTEAQNMGG: the amyloid nucleation score is 0.631 ± 0.55.
HVCKRRFRFRGLTILCRFTL: the amyloid nucleation score is -0.769 ± 1.1.
Substance YTSTIKYLVYNN yielded an amyloid nucleation score of -1.08 ± 0.94.
Consider YIGTKCWNANHVVLLLFCRG, for which the amyloid nucleation score was -0.127 ± 0.32.
The substance NVSGNEMISGAFGIDEIDGS returned an amyloid nucleation score of 0.189 ± 0.9.
RNLLVEFSLVSKWGLSSSWR returned an amyloid nucleation score of 0.557 ± 0.51.
For CSSHDQFSAR, the amyloid nucleation score is -0.214 ± 0.77.
In the case of VDYFFMGAGFEL, the amyloid nucleation score was determined as 4.53 ± 0.077.
For the substance SSFRKTLLMVIYARNEGCMS, the amyloid nucleation score was found to be 0.471 ± 0.97.
SCMESSVTL: the amyloid nucleation score stood at 0.656 ± 0.35.
As for TKFIE, the amyloid nucleation score is 1.2 ± 0.37.
PMMLDDTPKRSKQPHWIGGH came in with an amyloid nucleation score of -0.584 ± 2.1.
Consider YLIRHIENGCSTQCRSTSWV, for which the amyloid nucleation score entry is “inactive”.
Take IEGWHTRVHRRTLIVMCLIG: the amyloid nucleation score came out at 1.09 ± 0.41.
Under TYLAVGLMHYEWRGDSVSTD stands -0.603 ± 0.32; under SLMWLWIFSRAGSLSLLLIA, 0.718 ± 1.2.
On to ANGADCYSLSKTEYYYGKTL, for which the amyloid nucleation score is -0.129 ± 1.6.
As for IKVQASQDP, the figure is 9.252 ± 0.05.
As for TEQYCS, the figure is 0.404 ± 1.
In the case of FKNVHFRNS, the amyloid nucleation score was -1.69 ± 1.3.
Substance VFNRFCYSSFCLTYRDYDSQ displayed an amyloid nucleation score of 8.198 ± 0.07.
As for NWLNWLTHLFS, the figure is 0.407 ± 0.49; as for LFRSSKSIRSLLSFCSICMF, 5.33 ± 0.076.
THYYCVLTGKITRRVLYILL displayed an amyloid nucleation score of -1.13 ± 0.67.
As for AIYSPYRNLER, the figure is 0.233 ± 0.42; as for CWYWDSPSVGFTAILYYLAG, 0.138 ± 0.57.
Consider VSHIAPRWPLSRTIRETQRM, for which the amyloid nucleation score came out at 0.479 ± 1.2.
For the substance PYLSRTRISIVNMCSICGLI, the amyloid nucleation score was 1.34 ± 0.44.
Under SMTKSIGMRSYGMVAHGAGS stands 0.722 ± 0.45.
Substance ALLSSYLWK returned an amyloid nucleation score of 0.996 ± 0.45.
NNLLLSYSSFYMLMFQ returned an amyloid nucleation score of 3.42 ± 0.076.
As for IYGIMLG, the amyloid nucleation score entry is “inactive”.
Under NIGMVRFFLGAN stands -0.71 ± 0.61; under TRRHKYFEWD, -0.285 ± 0.8.
CPYRYYHTNLFMVIFLYRGM registered an amyloid nucleation score of -0.349 ± 0.47.
The substance YPIYIVWVFIVITICVANDS yielded an amyloid nucleation score of -0.072 ± 0.31.
The substance IFSRSEEFVFFGHINSV gave an amyloid nucleation score of 1.68 ± 0.32.
In turn, QESEMVCDLSGMAFLSGLVY gave an amyloid nucleation score of -0.442 ± 0.51.
As for YWCNYVIVMSCKWG, the amyloid nucleation score entry is “inactive”.
LCDFKTSEVPSEGTFWSVLA: the amyloid nucleation score was found to be 0.181 ± 0.51.
For the substance SVGQRSRAEPDVKLCSGNLG, the amyloid nucleation score result is “inactive”.
With DNTWLFVAL, the amyloid nucleation score worked out at 0.918 ± 0.35.
For the substance SLRFPKKGYVTRCTAWYLGV, the amyloid nucleation score was 3.45 ± 0.083.
For the substance CFCVD, the amyloid nucleation score turned out to be 1.01 ± 0.19.
Substance SINRRALRLGHHSSGVMAGL had an amyloid nucleation score of -0.547 ± 1.3.
As to SPPLSASS, the amyloid nucleation score is -0.476 ± 1.9.
Substance WINYRRDPTAHSNSYFRVGI showed an amyloid nucleation score of 0.059 ± 0.58.
Substance YWIDR yielded an amyloid nucleation score of -0.281 ± 0.42.
Consider MSEVTMGLRTMFVIFNR, for which the amyloid nucleation score was 2.79 ± 0.1.
Under DIMKSSKAHELVQSLPIEKR stands 0.248 ± 0.64; under SFEDLEM, 0.457 ± 0.85; under PALKYFEAVVH, “inactive”.
In turn, GLKNFWM showed an amyloid nucleation score of -1.55 ± 1.9.
RAVANCVLSLCYWNCCLYRY gave an amyloid nucleation score of -0.343 ± 1.4.
On to GSHWPYDGWWISYLWFHLR, for which the amyloid nucleation score amounted to 0.858 ± 0.38.
For the substance YTAMFCNSVLHADGLPQLMG, the amyloid nucleation score is -0.033 ± 0.97.
Consider ARRLFAAMLLRDWVPLTSQM, for which the amyloid nucleation score was determined as 1.27 ± 0.66.
CSAMPAFWAGHRSGASLHER: the amyloid nucleation score turned out to be 0.017 ± 0.4.
Under GEFAYSMVQGHYRIMLMSLK stands 1.49 ± 0.68.
The substance YMCGLSECAS displayed an amyloid nucleation score of 5 ± 0.062.
Under VTHNSTAHE stands 1.09 ± 0.75; under KWIRRRTDIFELSRLVWMGW, -0.694 ± 0.58.
VDFLSTNFWSLSVPVAFLGV returned an amyloid nucleation score of -0.31 ± 0.54.
The substance IFDSFQATLCLGCLMLLSYF showed an amyloid nucleation score of 0.423 ± 0.44.
SIVVLGASTWR had an amyloid nucleation score of 0.032 ± 0.61.
As for CIISNVCTRVGGKMGSYGYS, the figure is 0.133 ± 0.4; as for STWIHQMRSMASAENFSCYS, -1.27 ± 0.63; as for ANISSGKFVRGSCENLARLR, -0.805 ± 0.59.
As for TEFERFFKRDGYWGSRSYSR, the figure is 0.221 ± 0.59; as for LDCINRERYIHFMR, 1.92 ± 0.5; as for FSIRTFVIRFTLMEHLSLEL, 0.266 ± 0.52.
On to MDIFDTLAWTF, for which the amyloid nucleation score came to 0.632 ± 0.58.
In the case of FRTHD, the amyloid nucleation score came out at 0.351 ± 0.97.
On to ITEVLKNVKKWFCFIRISVG, for which the amyloid nucleation score is 0.113 ± 0.5.
In the case of WGIFSMYHWRYAVRDRSMHS, the amyloid nucleation score entry is “inactive”.
Turning to IMNMSSNIRK, the amyloid nucleation score was -0.539 ± 0.34.
Substance TVANT yielded an amyloid nucleation score of 0.888 ± 1.1.
Regarding FTDSTRFGSYLLSSAMFPTM, the amyloid nucleation score is -1.65 ± 2.7.
MFCRVVRGGCGSSIGC: the amyloid nucleation score was found to be 0.249 ± 0.79.
Turning to IEEPIYDSKHLPKMRSTGYT, the amyloid nucleation score was 0.486 ± 0.35.
The substance SSKEWLNADAVPGNGVEAIV returned an amyloid nucleation score of -0.338 ± 0.53.
Substance DEPMSDLALVFMYYTVYPGG returned an amyloid nucleation score of 0.638 ± 0.55.
In the case of YMGGEWKD, the amyloid nucleation score came to 6.801 ± 0.06.
CNITWSFSDRLWY returned an amyloid nucleation score of 0.476 ± 0.27.
As for KAGRGICESYRSFHPRPVFA, the figure is 0.034 ± 0.4; as for MNYFVMSHSNKLDASLCWRR, 1.52 ± 0.25; as for KDQTTYMDCFV, 0.101 ± 0.49.

For the origin of these results see the supplement of paper PMC12042874.
